Ends that are not written are not given here.

For experiment [1], the target named is Artificial Cell Surface (ACS). In words: ACS column adsorption of trypsin-digested dHSA, MALDI-TOF MS.
Another experiment concerns the target T1, His-tagged P3028 (human, also: His tag, length and end not given here).
T1 construct: in solution at 0.5 ug/mL, detected with mouse anti-His antibody and rabbit anti-mouse peroxidase (rampo); also called PGE73; His-tag-P3028; not shown: His tag
T1 peptide: VFDEFKPLVEEPQNLIK
The experiment in a line: PEPSCAN ELISA, peptide on chip.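 Also: binding detected by peroxidase ELISA with ABTS, OD405 colour imaged by CCD camera before and after staining, raw OD405 reported as rampo units, air-bubble wells scored 0.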

The target in experiment [2] is Artificial Cell Surface (ACS): biotinylated cell surface proteins of human PBMCs bound to a streptavidin column (human). In words: adsorption on ACS column, MALDI-TOF ms.

Description for His-tagged P3028: After washing, the peroxidase substrate 2,2′-azine-di-3-ethylbenzthiazoline sulfonate (ABTS) and 2 μL of 3% H2O2 were added. The binding capacity of the mAb was measured as a color development at 405 nm (optical density, OD405). The color development was quantified with a charge-coupled device (CCD)—camera and an image processing system.
The OD405-values obtained by a CCD-camera was considered as raw data values (“rampo values,” “rampo units,” or “rampo scores”). […] First the CCD-camera made a picture of the card before peroxidase coloring and then again a picture after the peroxidase coloring. […] These values were copied into an excel file and labeled as a raw data file. […] Sometimes a well can contain an air-bubble resulting in a false-positive value. If manual inspection of the cards detect an air-bubble the value are set to 0 for well.

The molecule AVMDDFAAFVEK [… (trypsin-generated albumin fragment, SEQ ID NO: 208)] gave a Percent Absorbed in experiment [1] of 23%.

Consider KKLDTFFVKLSLFTER [SEQ ID NO 391], for which, in the experiment with His-tagged P3028, the “RAMPO Score” value came out at 260 rampo units. In experiment [2], KVPQVSTPTLVEVSR [Trypsin-generated albumin fragment, SEQ ID NO 195] displayed a Percent Absorbed of 64%. Take CCTESLVNR [Trypsin-generated albumin fragment, SEQ ID NO 206]: in experiment [2], the Percent Absorbed was determined as 26%.

For the molecule AAFTECCQAADK [… (trypsin-generated albumin fragment, SEQ ID NO: 205)], in experiment [1], the Percent Absorbed amounted to 29%. LCTVATLR [Trypsin-generated albumin fragment, SEQ ID NO 202] displayed a Percent Absorbed in experiment [2] of 35%. On the same count and under the same terms, as for SLHTLFGDK [Trypsin-generated albumin fragment, SEQ ID NO 200], the figure is 36%. As to YICENQDSISSK [… (trypsin-generated albumin fragment, SEQ ID NO: 214)], in experiment [1], the Percent Absorbed was 3%. QEPERNECFLQHK (not fully specified) [Trypsin-generated albumin fragment, SEQ ID NO 211]: the Percent Absorbed in experiment [2] came to 18%. In experiment [1], DDNPNLPR [DDNPNLPR (trypsin-generated albumin fragment, SEQ ID NO: 216)] showed a Percent Absorbed of 1%. Same read-out and setting: as for LDELRDEGK [… (trypsin-generated albumin fragment, SEQ ID NO: 215)], the figure is 2%; as for VHTECCHGDLLECADDR [… (trypsin-generated albumin fragment, SEQ ID NO: 212)], 13%. In experiment [2], AAFTECCQAADK [Trypsin-generated albumin fragment, SEQ ID NO 205] had a Percent Absorbed of 29%. In experiment [2], QEPERNECFLQHK (not fully specified) [Trypsin-generated albumin fragment, SEQ ID NO 207] yielded a Percent Absorbed of 25%. In turn, KYLYEIAR [Trypsin-generated albumin fragment, SEQ ID NO 194] registered a Percent Absorbed in experiment [2] of 71%. The molecule LAKYICENQDSISSKLKECCEKPLLEKHCIAEVEN [Asp-N-generated albumin fragment, SEQ ID NO 226] came in with a Percent Absorbed in experiment [2] of 100%. The same measure, in the same setting: the value for CCAAADPHECYAK [Trypsin-generated albumin fragment, SEQ ID NO 204] was 32%.

The molecule YLSVVLNQLCVLHEKTPVSDRVTKCCCTESLVNRRPFSALEV [Asp-N-generated albumin fragment, SEQ ID NO 230] came in with a Percent Absorbed in experiment [2] of 37%. For DDKETCFAEEGKKLVAASQAALGL [Asp-N-generated albumin fragment, SEQ ID NO 218], the Percent Absorbed in experiment [2] worked out at 100%. For the molecule FKDLGEENFK [… (trypsin-generated albumin fragment, SEQ ID NO: 213)], the Percent Absorbed in experiment [1] came out at 8%. Still for that read-out and setting: the value for VPQVSTPTLVEVSR [… (trypsin-generated albumin fragment, SEQ ID NO: 197)] was 59%. As to RPCFSALEVDETYVPK [Trypsin-generated albumin fragment, SEQ ID NO 198], in experiment [2], the Percent Absorbed came out at 42%.

The molecule VPQVSTPTLVEVSR [Trypsin-generated albumin fragment, SEQ ID NO 197] had a Percent Absorbed in experiment [2] of 59%. Turning to FQNALLVR [FQNALLVR (trypsin-generated albumin fragment, SEQ ID NO: 199)], the Percent Absorbed in experiment [1] came out at 41%. In experiment [2], VFLGMFLYEYARRHPDYSVVLLLRLAKTYETTLEKCCAAA [Asp-N-generated albumin fragment, SEQ ID NO 227] had a Percent Absorbed of 100%.

For the molecule KYLYEIAR [KYLYEIAR (trypsin-generated albumin fragment, SEQ ID NO: 194)], the Percent Absorbed in experiment [1] is 71%. RPCFSALEVDETYVPK [… (trypsin-generated albumin fragment, SEQ ID NO: 198)] had a Percent Absorbed in experiment [1] of 42%. Still for that read-out and setting: as for QEPERNECFLQHK (not fully specified) [… (trypsin-generated albumin fragment, SEQ ID NO: 211)], the figure is 18%. With AVMDDFAAFVEK [Trypsin-generated albumin fragment, SEQ ID NO 208], in experiment [2], the Percent Absorbed turned out to be 23%. The same measure, in the same setting: as for YSVVLLLRLAKTYETTLEKCCAAADPHECYAKVF [Asp-N-generated albumin fragment, SEQ ID NO 223], the figure is 100%; as for VHTECCHGDLLECADDR [Trypsin-generated albumin fragment, SEQ ID NO 212], 13%; as for LKECCEKPLLEK [Trypsin-generated albumin fragment, SEQ ID NO 201], 36%. In turn, YICENQDSISSK [Trypsin-generated albumin fragment, SEQ ID NO 214] gave a Percent Absorbed in experiment [2] of 3%. As for NECFLQHK [NECFLQHK (trypsin-generated albumin fragment, SEQ ID NO: 209)], the Percent Absorbed in experiment [1] worked out at 22%. DETYVPKEFNAETFTHA [Asp-N-generated albumin fragment, SEQ ID NO 220] came in with a Percent Absorbed in experiment [2] of 86%. CCAAADPHECYAK [… (trypsin-generated albumin fragment, SEQ ID NO: 204)] had a Percent Absorbed in experiment [1] of 32%. As for QEPERNECFLQHK (not fully specified) [… (trypsin-generated albumin fragment, SEQ ID NO: 207)], in experiment [1], the Percent Absorbed is 25%. The molecule LGEENFKALVLIAFAQYLQQCPFEDHVKLVNEVTEFAKTCVA [Asp-N-generated albumin fragment, SEQ ID NO 228] yielded a Percent Absorbed in experiment [2] of 100%.

With VFDEFKPLVEEPQNLIK [… (trypsin-generated albumin fragment, SEQ ID NO: 196)], the Percent Absorbed in experiment [1] amounted to 60%. In experiment [2], YLYEIAR [Trypsin-generated albumin fragment, SEQ ID NO 203] came in with a Percent Absorbed of 34%. In experiment [2], DRVTKCCTESLVNRRPCFSALEV [Asp-N-generated albumin fragment, SEQ ID NO 219] displayed a Percent Absorbed of 87%. Regarding DHVKLVNEVTEFAKTCVA [Asp-N-generated albumin fragment, SEQ ID NO 217], the Percent Absorbed in experiment [2] was determined as 100%.

Take KVPQVSTPTLVEVSR [… (trypsin-generated albumin fragment, SEQ ID NO: 195)]: the Percent Absorbed in experiment [1] was found to be 64%. Regarding NECFLQHK [Trypsin-generated albumin fragment, SEQ ID NO 209], in experiment [2], the Percent Absorbed was 22%.

Molecule RVTKCCTESLVNRRPCFSALEVDETYVPKEFNAETFTFHA [Asp-N-generated albumin fragment, SEQ ID NO 229] yielded a Percent Absorbed in experiment [2] of 100%.

As for DKLCTVATLRETYGEM [Asp-N-generated albumin fragment, SEQ ID NO 222], in experiment [2], the Percent Absorbed came out at 65%. On to CCTESLVNR [… (trypsin-generated albumin fragment, SEQ ID NO: 206)], for which, in experiment [1], the Percent Absorbed amounted to 26%. In turn, FKDLGEENFK [Trypsin-generated albumin fragment, SEQ ID NO 213] had a Percent Absorbed in experiment [2] of 8%.

On to DDNPNLPR [Trypsin-generated albumin fragment, SEQ ID NO 216], for which, in experiment [2], the Percent Absorbed was 1%.

For the molecule FQNALLVR [Trypsin-generated albumin fragment, SEQ ID NO 199], the Percent Absorbed in experiment [2] stood at 41%. Still for that read-out and setting: as for DSISSKLKECCEKPLLEKSHCIAEVEN [Asp-N-generated albumin fragment, SEQ ID NO 221], the figure is 65%.

Regarding KKLDTFFVKLSLFTDR [SEQ ID NO 387], the “RAMPO Score” value in the experiment with His-tagged P3028 turned out to be 404 rampo units. As to KKLDTFFVKLSLFTEK [SEQ ID NO 389], the “RAMPO Score” value with His-tagged P3028 turned out to be 291 rampo units. KKLDTFFVKLSLFTEY [SEQ ID NO 393]: in the experiment with His-tagged P3028, the “RAMPO Score” value was 311 rampo units. As to KKLDTFFVKLSLFTEF [SEQ ID NO 388], the “RAMPO Score” value in the experiment with His-tagged P3028 worked out at 297 rampo units. On the same count and under the same terms, as for KKLDTFFVKLSLFTET [SEQ ID NO 392], the figure is 292 rampo units. Same read-out and setting: as for KKLDTFFVKLSLFTEN [SEQ ID NO 390], the figure is 311 rampo units. Molecule KLCTVATLRETYGEMADCCAKQEPERNECFLQHK [Asp-N-generated albumin fragment, SEQ ID NO 224] had a Percent Absorbed in experiment [2] of 100%. Regarding LDELRDEGK [Trypsin-generated albumin fragment, SEQ ID NO 215], the Percent Absorbed in experiment [2] is 2%. The same measure, in the same setting: the value for ICTLSEKERQIKKQTALVELVKHKPKATKEQLKAVM [Asp-N-generated albumin fragment, SEQ ID NO 225] was 100%.

Regarding YLYEIAR [YLYEIAR (trypsin-generated albumin fragment, SEQ ID NO: 203)], in experiment [1], the Percent Absorbed stood at 34%. For VFDEFKPLVEEPQNLIK [Trypsin-generated albumin fragment, SEQ ID NO 196], in experiment [2], the Percent Absorbed was 60%.
